Experimental data published in the nanobody polyreactivity screen of Harvey et al. (2022).

Test: yeast display, Sf9 membrane polyspecificity reagent, FACS + sequencing; frameworks hold sequencing errors
In short: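 After 36–48 hours of galactose induction, yeast (Saccharomyces cerevisiae BJ5465) displaying a synthetic nanobody library were stained at 4 °C for 1 hour with 10% biotinylated, detergent-solubilized Sf9 membrane reagent. Streptavidin microbeads enriched the stained cells before FACS sorting into low and high (top ~1%) gates on anti-HA and streptavidin fluorescence. Each clone's polyreactivity label reflects its gate of origin.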

| Sequence | polyreactivity (PSR sort gate) |
| --- | --- |
| QVQLVESGGGLVQAGGSLRLSCAASGNTLQYYAMGWYRQAPGKERELVAAITTGGSTNYADSVKARFTISRDNAKNTGYLQMNSLKPEDTAVYYCAARGGVSKRISDYWGQGTQVTVSS | low polyreactivity |
| QVQLVESGGGLVQAGGSLRLSCAASGNTLVKNAMGWYRQAPGKERELVAANSSSGGRTYYADSVKGRFTISRDNAKTTVYLQLNSLKPEDTAVYYCAARYPSGYYYWGQGTQVTVSS | high polyreactivity |
| QVQLVESGGGLVQAGGSLRLSCAASGNTLYQYAMGWYRQAPGKERELVASITWSGSSTYYADSVKGRFTISRDNAKNTVYVQMNSLKPEDPAVYYCAAYGYHRDYLYDYWGQGTQVTVSS | low polyreactivity |
| QVQLVESGGGLVQAGGSLRLSCAASGNTSPYSAMGWYRQAPGKEREWVAGISSGGTTNYADSVKGRFTISRDNAKNTVDLQMNSLKPVDTAVYYCAADEWYVECLGYFFAYDYWGQGTQVTVSS | low polyreactivity |
| QVQLVESGGGLVQAGGSLRLSCAASGNTYDPNAMGWYRQAPGKERELVAAISSDGSTKYADSVKGRFTISRDNAKNTVYLQMNSLKPEDTAVYYCAADHGYWYWYGGDNSWGQGTQVTVSS | low polyreactivity |
| QVQLVESGGGLVQAGGSLRLSCAASGNTYGYNAMGWYRQAPGKERELVASITWSGGSTYYADSVKGRFTISRDNAKNTVYLQMNSLKPEDTAVYYCNADVRYGRDHWGQGTQVTVSS | low polyreactivity |
| QVQLVESGGGLVQAGGSLRLSCAASGPIFKRNAMGWYRQAPGKERELVAAISGSGGRTNYADSVKGRFTISRDTAKNTVYLQMNSLKPEDTAVYYCAARANFFGWPKSYYYLGQGTQVTVSS | high polyreactivity |
| QVQLVESGGGLVQAGGSLRLSCAASGPIFLRYAIGWYRQAPGKERVLVAVISRSGSSTYYADSVKGRFTISRDNAKNTVYLQMNSLKPEDTAFYHCAAGYSWGYSSQKLRYGYLGQGTQVTVSS | high polyreactivity |
| QVQLVESGGGLVQAGGSLRLSCAASGPILGQYAMGWYRQAPGKDRELVAAITYSGGRTYYADSVKGRFTLSRDNAKNTVYLQMNSLKPEDTAVYYCAARGRASVERRGGYYYWGQGTQVTVSS | high polyreactivity |
| QVQLVESGGGLVQAGGSLRLSCAASGPTFFLYDMGWYRQAPGKERELVAAITSSGGDTYYADSVKGRFTISRDNAKNTVYLQMNSLKPEDTAVYYCAAEVWFPDRWMDYWGQGTQVTVSS | high polyreactivity |
| QVQLVESGGGLVQAGGSLRLSCAASGPTFPFNAMVWYRQAPGKERELVAAISWRDGRTYYADSVKGRFTISRDNAKNTVYLQMNSLKPEDTAVYYCNVVKRRSDWGMVYWGQGTQVTVSS | high polyreactivity |
| QVQLVESGGGLVQAGGSLRLSCAASGPTFYRYAMGWYRQAPGKERELVAAISSSGGSTYYADSVKGRFTISRDNANNTVYLQMNSLKPEDTAVYYCATGYRYASYLCNYWGHGTQVTVSS | high polyreactivity |
| QVQLVESGGGLVQAGGSLRLSCAASGPTIDLYAMGCYRQAPGKERELVATIRSDGSTTYADSVKGRFTISRDNAKNTVYLQLNSLKPEDTAVYDCAAAFRSGFSSSTTPVQSDWGQGTQVTVSS | low polyreactivity |
| QVQLVESGGGLVQAGGSLRLSCAASGPTLRSYAMGWYRQAPGKERELVAAITRASGARTFYADSVKGRFTISRDSAKNTVYLQMNSLKPEDSAGYYCTAVGRSDLFEYWGQGTQVTVSS | high polyreactivity |
| QVQLVESGGGLVQAGGSLRLSCAASGQIFFVYAMGRYRQAPGKESELVAAISFSAGRTYYADSVKGRFTISRDNAKNTVYLQMNSLKPEDTAVYYCNALRQDTGHYPYDYWGQGTQVTVSS | low polyreactivity |
| QVQLVESGGGLVQAGGSLRLSCAASGRICDYNVMGWYRQAPGKERELVADITSSGGSTYYADSVKGRFTISRDNAKNTVYLQMNSLKPEDTAVYYCYISYFTFYDDFYYWGQGTQVTVSS | low polyreactivity |

| Sequence | polyreactivity (PSR sort gate) |
| --- | --- |
| QVQLVESGGGLVQAGGSLRLSCAASGRICVTYAIGRYRQAPGKERELVAASTYSGGSTYYADSVKGRFTISRDNAKNTVYLQMNSLKPEDTAVYYCGWTYHYHRESWGQGTQVTVSS | low polyreactivity |
| QVQLVESGGGLVQAGGSLRLSCAASGRIDLDYDMGWYRPAAGKERELVATISSGGSTNYADSVKGRFTISRDNAKNTVYLQMNSLKPDDTAVYYCNKDYHVRYYYWGQGTQVTVSS | low polyreactivity |
| QVQLVESGGGLVQAGGSLRLSCAASGRIFAAYAMGWYRQAPGKERELVATITRGGSTYYADSVKGRFTISRDNAKNTVYLQMNSLKQKDTAVYYCAVKRGFTQYKPFNYWGQGTQVTVSS | high polyreactivity |
| QVQLVESGGGLVQAGGSLRLSCAASGRIFADYAMGWYRQAPGKEREMVADIRQSGGRTYYADSVKGRFTISRDNAKNTVYLQMNSLKPEDTAVYYCATEYGSLGDYSGKYDYWGQGTQVTVSS | low polyreactivity |
| QVQLVESGGGLVQAGGSLRLSCAASGRIFAFSAMGWSRQAPGKERELVAAISSGGSTYYADSVKGRFTISRDNAKNTVYLQMNSLKPEDTAVYYCAASGLYYYRYRYYYWGQGTQVTVSS | high polyreactivity |
| QVQLVESGGGLVQAGGSLRLSCAASGRIFAFYAMGWYRQAPGKERELVAAITSGGSTKYADSVNGRFSISRDNAKNTVYLLMNSMKPEDTAVYYCAARYRWQFRSQYDYWGQGTQVTVSS | high polyreactivity |
| QVQLVESGGGLVQAGGSLRLSCAASGRIFAFYVMGWYRQAPGKERELVAAITSGGNTNYADSVKGRFTISRDNAKNTVYLQMNSLKPEDTAVYYCARAWLGQYTLGTYYYWGQGTQVTVSS | low polyreactivity |
| QVQLVESGGGLVQAGGSLRLSCAASGRIFAGNAMGWYRQAPGKERELVAAISNGGSTYYADSVKGRFTISRDNAKNTVYLQMNSLKPEDTAVYYCNARTRLRKYQYYYWGQGTQVTVSS | high polyreactivity |
| QVQLVESGGGLVQAGGSLRLSCAASGRIFAGYAMGWSRQAPGKERELVASIRSSGSTYYADSVKGRFTISRDNAKNTVYLQMNSLKPEDTAVYYCATTGRRWYYPYHYWGQGTQVTVSS | high polyreactivity |
| QVQLVESGGGLVQAGGSLRLSCAASGRIFAGYAMGWYRKAPGKERELVASIRSSGSTYYADSVKGRFTISRDNAKNTVYLQMNSLKPEDTAVYYCAARSGYFRSRFDYWGQGTQVTVSS | high polyreactivity |
| QVQLVESGGGLVQAGGSLRLSCAASGRIFAGYAMGWYRQAPGKERELVATITRGGSTNYADSVKRPFTISRDNAKNTVYLQMNSLKPDDTAVYYCNADIRRHGGYAHEYWGQGTQVTVSS | low polyreactivity |
| QVQLVESGGGLVQAGGSLRLSCAASGRIFAGYPMGWYRQAPGKERELVATFTRGGSTNYADSVKRPFTISRDNAKNSVYLQMNSLKPEDTAVYYCNAAIRRHGGYAHEYWGQGTQVTVSS | low polyreactivity |
| QVQLVESGGGLVQAGGSLRLSCAASGRIFAGYPMGWYRQAPGKERELVATITRGGSTNYADSVKRPFTISRDNAKYTVYLQMNSLKPEDTAVYYCNADPGGRYPRRGYAHEGDYWGQGTQVTVSS | low polyreactivity |
| QVQLVESGGGLVQAGGSLRLSCAASGRIFAHYEMGWYRQAPGKERELVAAISSGGSTYYADSVKGRFTISRDNAKNTVYLQMNSLKPEDTAVYYCNKRPVRRKYDYWGQGTQVTVSS | low polyreactivity |
| QVQLVESGGGLVQAGGSLRLSCAASGRIFAIYAMGWYRQAPGKERELVAGITYSAGSTYYADSVKGRFTISRDNAKNTVYLQMNSLKREDTAVYYCAALEYTSHRYGYDYWGQGTQVTVSS | low polyreactivity |
| QVQLVESGGGLVQAGGSLRLSCAASGRIFALYAMGWYRQAPGKDRELVAAITSSDGSTYYADSVKGRFTISRDIAKNSVYFQMKSLKPEDTAVYYSAAVWWRYYQDPYYYWGQGTQVTVSS | low polyreactivity |
